One test deals with T1, mCCM1.
T1 construct: also called mouse CCM1; mouse CEACAM1/CD66a protein (Sino Biological); not shown: the vendor's polyhistidine tag
T1 chain: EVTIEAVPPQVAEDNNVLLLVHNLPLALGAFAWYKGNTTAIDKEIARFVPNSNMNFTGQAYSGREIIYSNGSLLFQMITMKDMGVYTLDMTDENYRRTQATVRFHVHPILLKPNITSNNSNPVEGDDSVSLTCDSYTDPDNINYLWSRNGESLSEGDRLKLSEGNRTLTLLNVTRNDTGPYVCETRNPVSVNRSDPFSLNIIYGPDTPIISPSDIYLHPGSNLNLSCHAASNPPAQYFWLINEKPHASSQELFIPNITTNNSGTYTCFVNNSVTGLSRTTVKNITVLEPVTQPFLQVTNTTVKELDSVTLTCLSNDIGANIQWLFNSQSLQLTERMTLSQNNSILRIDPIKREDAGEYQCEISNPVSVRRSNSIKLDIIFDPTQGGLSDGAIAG
As to the kind of experiment: ELISA on coated antigen (0.25 µg/ml), HRP anti-human IgG Fab, OD450. From the text: (§1) All of the recombinant human CEACAM-1/CD66a protein (R&D systems; Cat. No. 2244-CM, HCCM1), recombinant human CEACAM-5/CD66e protein (R&D systems; Cat. No. 4128-CM, HCCM5), recombinant human CEACAM-6/CD66c protein (R&D systems; Cat. No. 3934-CM, HCCM6), recombinant human CEACAM-3/CD66d protein (Sino Biological; Cat. No. 11933-H08H, HCCM3), recombinant mouse PD-1 Fc chimeric protein (R&D systems; Cat. No. 1021-PD, mPD-1-Fc), recombinant CEACAM1-Fc (IgG4) protein (Mogam, in-house production, HCCM1-Fc), recombinant human CEACAM-1/CD66a protein Bulk (R&D systems; Cat. No. 2244-CM, HCCM1 (bulk)) and mouse CEACAM1/CD66a protein (Sino Biological; Cat. No. 50571-M08H, mouse CCM1) (2.5 μg each) were dissolved in 10 ml of PBS, respectively and dispensed into a 96-well plate (Nunc; Cat. No. 467679) at 100 μl/well, which was incubated overnight at 4° C. Thereafter, each well was treated with 300 μl of 1% (v/v) bovine serum albumin, which was incubated at 37° C. for 1 hour.
(§2) The diluted antibodies were dispensed into each well coated with each protein at 100 μl/well, which was incubated at 37° C. for 1 hour. Then, each well was washed 3 times with a washing buffer prepared by diluting 10 μl of Tween 20 (Sigma-Aldrich; Cat. No. P9146) in 990 μl of PBS. Thereafter, 2 μl of HRP-conjugated human anti-IgG-Fab antibody (anti-human IgG Fab; Sigma; Cat. No. A0293) was diluted in 10 ml of PBS, added to the wells at 100 μl/well, and incubated for 1 hour.
(§3) After completion of the reaction, the wells were washed three times with the washing buffer, and 100 μl of TMB solution was added to each well to induce color development. Then, 100 μl of 2 M H₂SO₄ was added to each well to stop the reaction, and the absorbance was measured at a wavelength of 450 nm.
A general note: ELISA stands for enzyme-linked immunosorbent assay.

Test [1] addresses T2, recombinant human CEACAM-6/CD66c protein (R&D systems; Cat. No. 3934-CM) (human, UniProt P40199 35-320).
T2 construct: Bought protein; also called HCCM6
T2 sequence (looked up): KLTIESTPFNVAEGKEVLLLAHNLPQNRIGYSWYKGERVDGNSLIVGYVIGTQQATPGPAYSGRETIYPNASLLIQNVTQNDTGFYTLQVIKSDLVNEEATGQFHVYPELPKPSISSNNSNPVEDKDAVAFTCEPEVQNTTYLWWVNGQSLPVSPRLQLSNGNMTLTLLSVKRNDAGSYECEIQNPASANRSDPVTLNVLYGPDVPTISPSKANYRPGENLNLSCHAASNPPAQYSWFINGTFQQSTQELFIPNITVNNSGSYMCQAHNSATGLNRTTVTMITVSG
Described as above.
Excerpt: as §1, §2, §3

The next test concerns the target T3, HVISTA.
T3 construct: unrelated control antigen; also called human B7-H5/Gi24/VISTA protein (Sino Biological; Cat. No. 13482-H08H); not shown: the vendor's polyhistidine tag
Kind of test: ELISA on coated antigen (0.25 µg/ml), HRP anti-human IgG Fc, OD450.
Excerpt: (§4) All of the recombinant human CEACAM-1/CD66a protein (R&D systems; Cat No. 2244-CM, HCCM1), recombinant human CEACAM-5/CD66e protein (R&D systems; Cat. No. 4128-CM, HCCM5), recombinant human CEACAM-6/CD66c protein (R&D systems; Cat. No. 3934-CM, HCCM6), recombinant human CEACAM-3/CD66d protein (Sino Biological; Cat. No. 11933-H08H, HCCM3), human B7-H5/Gi24/VISTA protein (Sino Biological; Cat. No. 13482-H08H, HVISTA), recombinant human CEACAM-1/CD66a protein Bulk (R&D systems; Cat. No. 2244-CM, HCCM1 (bulk)), recombinant human CEACAM1-N domain-Kappa protein (Mogam, in-house production, HCCM1-N domain-kappa), and BSA protein (2.5 μg each) were dissolved in 10 ml of PBS, respectively, and dispensed into a 96-well plate at 100 μl/well, which was incubated at 4° C. overnight. Thereafter, each well was treated with 300 μl of 1% (v/v) bovine serum albumin, and incubated at 37° C. for 1 hour.
(§5) The diluted antibodies were dispensed into each well coated with each protein at 100 μl/well, and incubated at 37° C. for 1 hour. Then, each well was washed 3 times with a washing buffer prepared by diluting 10 μl of Tween 20 (Sigma-Aldrich; Cat. No. P9146) in 990 μl of PBS. Thereafter, 2 μl of HRP-conjugated human anti-IgG-Fc antibody (anti-human IgG Fc, Sigma Cat. No. A0170) was diluted in 10 ml of PBS, added to the wells at 100 μl/well, and incubated for 1 hour.
as §3

For the next test, the target named is T4, BSA (bovine, UniProt P02769).
T4 construct: blank antigen; also called BSA protein; bovine serum albumin
T4 sequence (P02769 25-607 limits assumed): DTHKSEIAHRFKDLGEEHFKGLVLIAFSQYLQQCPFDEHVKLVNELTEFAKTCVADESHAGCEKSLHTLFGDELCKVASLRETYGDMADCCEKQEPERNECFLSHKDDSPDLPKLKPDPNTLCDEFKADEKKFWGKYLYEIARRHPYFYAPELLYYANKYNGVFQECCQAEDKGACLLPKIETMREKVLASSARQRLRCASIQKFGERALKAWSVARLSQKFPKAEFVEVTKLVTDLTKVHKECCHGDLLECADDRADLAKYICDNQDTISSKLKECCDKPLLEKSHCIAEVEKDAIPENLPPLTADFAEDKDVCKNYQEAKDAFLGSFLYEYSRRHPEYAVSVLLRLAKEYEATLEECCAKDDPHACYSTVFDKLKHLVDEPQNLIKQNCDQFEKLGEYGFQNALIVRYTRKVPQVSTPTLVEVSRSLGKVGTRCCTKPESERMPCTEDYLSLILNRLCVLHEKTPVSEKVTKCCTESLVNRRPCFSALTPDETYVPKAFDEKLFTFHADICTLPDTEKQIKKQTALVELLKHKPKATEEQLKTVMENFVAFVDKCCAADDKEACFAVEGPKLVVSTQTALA
Described as above.
Excerpt: as §4, §5, §3

T3 sequence (chain, as listed by the source limits assumed): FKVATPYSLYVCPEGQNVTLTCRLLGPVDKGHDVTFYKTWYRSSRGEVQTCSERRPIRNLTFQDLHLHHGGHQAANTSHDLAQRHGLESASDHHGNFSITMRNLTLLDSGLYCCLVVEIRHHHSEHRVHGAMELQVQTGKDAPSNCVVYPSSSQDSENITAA

B1: C18 (antibody, human IgG4 S228P, lambda, V domains shown)
VH: EVQLLESGGGLVQPGGSLRLSCAASGFTFSNYDMSWVRQAPGKGLEWVSGISHSSGSKYYADSVKGRFTISRDNSKNTLYLQMNSLRAEDTAVYYCARDPLPCLIPKCSYYYAMDVWGQGTLVTVSS
VL: QSVLTQPPSAPGTPGQRVTISCSGSSSNIGSNAVTWYQQLPGTAPKLLIYADSHRPSGVPDRFSGSKSGTSASLAISGLRSEDEADYYCGSWDDSLNAYVFGGGTKLTVLG
B1: the binding result (with mCCM1; in test [1]; with HVISTA; with BSA) was “no binding (tested: 3 µg/ml (single concentration))” each time.

B2: C25 (antibody, human IgG4 S228P, lambda, V domains shown)
VH: EVQLLESGGGLVQPGGSLRLSCAASGFTFSNYAMSWVRQAPGKGLEWVSVISHGGGSIYYADSVKGRLTISRDNSKNTLYLQMNSLRAEDTAVYYCARDPTKGYAPTFDYWGQGTLVTVSS
VL: QSVLTQPPSASGTPGQRVTISCSGSSSNIGNNYVSWYQQLPGTAPKLLIYADSKRPSGVPDRFSGSKSGTSASLAISGLRSEDEADYYCGAWDASLNGYVFGGGTKLTVLG
notes: Made in ExpiHEK293F cells, protein A purified. huIgG4 is the isotype control and anti-huIgG4 the detection reagent; the isotype is not otherwise stated; also called anti-CEACAM1 antibody C25
Consider B2, for which the binding result (in the test with mCCM1; in test [1]; in the test with HVISTA; with BSA) was “no binding (tested: 3 µg/ml (single concentration))” throughout.

B3: C17 (antibody, human IgG4 S228P, lambda, V domains shown)
VH: EVQLLESGGGLVQPGGSLRLSCAASGFTFSDYSMSWVRQAPGKGLEWVSVIYPDDGNTYYADSVKGRFTISRDNSKNTLYLQMNSLRAEDTAVYYCARGSIWWLSLIPSSYNAMDVWGQGTLVAVSS
VL: QSVLTQPPSASGTPGQRVTISCSGSSSNIGNNAVNWYQQLPGTAPKLLIYANSHRPSGVPDRFSGSKSGTSASLAISGLRSEDEADYYCGAWDASLNGYVFGGGTKLTVLG
For the molecule B3, the binding result (in the test with mCCM1; in test [1]; with HVISTA; in the test with BSA) was “no binding (tested: 3 µg/ml (single concentration))” in each case.

B4: C26 (antibody, human IgG4 S228P, lambda, V domains shown)
VH: EVQLLESGGGLVQPGGSLRLSCAASGFTFSGYDMSWVRQAPGKGLEWVSWISYGGGSIYYADSVKGRFTISRDNSKNTLYLQMNSLRAEDTAVYYCAKDRLPQKAVRHSYANGMDVWGQGTLVTVSS
VL: QSVLTQPPSASGTPGQRVTISCSGSSSNIGNNYVTWYQQLPGTAPKLLIYADSHRPSGVPDRFSGSKSGTSASLAISGLRSEDEADYYCGAWDYSLSGYVFGGGTKLTVLG
B4: the binding result (with mCCM1; in test [1]; with HVISTA; with BSA) was “no binding (tested: 3 µg/ml (single concentration))” each time.

B5: C22 (antibody, human IgG4 S228P, lambda, V domains shown)
VH: EVQLLESGGGLVQPGGSLRLSCAASGFTFSDYDMSWVRQAPGKGLEWVSMIYSGSSSKYYADSVKGRFTISRDNSKNTLYLQMNSLRAEDTAVYYCAKAPLPFYFRPKSYYYAMDVWGQGTLVTVSS
VL: QSVLTQPPSASGTPGQRVTISCSGSSSNIGSNNVTWYQQLPGTAPKLLIYANSHRPSGVPDRFSGSKSGTSASLAISGLRSEDEADYYCGSWDSSLNAYVFGGGTKLTVLG
For the molecule B5, the binding result (in the test with mCCM1; in test [1]; with HVISTA; in the test with BSA) was “no binding (tested: 3 µg/ml (single concentration))” in each case.

B6: C15 (antibody, human IgG4 S228P, lambda, V domains shown)
VH: EVQLLESGGGLVQPGGSLRLSCAASGFTFSSYSMSWVRQAPGKGLEWVSSISPNGGNKYYADSVKGRFTISRDNSKNTLYLQMNSLGAEDTAVYYCAKDPYNIYQPLFDYWGQGTLVTVSS
VL: QSVLTQPLSASGTPGQRVTISCSGSSSNIGNNYVNWYQQLPGTAPKLLIYANSNRPSGVPDRFSGSKSGTSASLAISGLRSEEEADYYCGTWDASLSAYVFGGGTKLTVLG
For the molecule B6, the binding result (in the test with mCCM1; in test [1]; in the test with HVISTA; with BSA) was “no binding (tested: 3 µg/ml (single concentration))” in each case.

B7: C19 (antibody, human IgG4 S228P, lambda, V domains shown)
VH: EVQLLESGGGLVQPGGSLRLSCAASGFTFSGYAMSWVRQAPGKGLEWVSGIYHDGGSTYYADSVKGRFTISRDNSKNTLYLQMNSLRAEDTAVYYCARVTVLCTTYGCSSYDGMDVWGQGTLVTVSS
VL: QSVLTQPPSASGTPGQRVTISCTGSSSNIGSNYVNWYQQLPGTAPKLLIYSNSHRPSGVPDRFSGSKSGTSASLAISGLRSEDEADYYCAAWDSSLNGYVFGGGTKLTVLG
In the case of B7, the binding result (with mCCM1; in test [1]; with HVISTA; with BSA) was “no binding (tested: 3 µg/ml (single concentration))” each time.

Values taken from US20200109196A1 (MOGAM INSTITUTE FOR BIOMEDICAL RESEARCH, published 2020).
